Test results as given in PMC9054013, “FCHO controls AP2’s initiating role in endocytosis through a PtdIns(4,5)P2-dependent switch” (Science Advances, 2022).

Experiments:
[1] = biological target: GST-FCHO1 linker wt (N123C) (residues 316 to 444) (human) (UniProt O14526); experiment: BLI; GST-FCHO1 or GST-FCHO2 linker loaded on anti-GST biosensors, blocked with GST-ARRS control; AP2 core in solution (twofold dilutions, 13.5 to 0.8 and 10.0 to 0.2 μM); 25°C; 0.1% NP-40, BSA 1 mg/ml; equilibrium analysis; near-physiological conditions
[2] = biological target: GST-FCHO2 linker wt (residues 314 to 444) (human) (UniProt Q0JRZ9); experiment: as above
[3] = biological target: GST-TGN38 (pGEX4T2 linker TGN38); experiment: BLI; GST-TGN38 loaded on anti-GST biosensors; AP2 core (3.3 to 0.1 μM) or AP2 FCHO2 chimera (2.6 to 0.9 μM) in solution; physiological buffer; association 20 min, dissociation 25 min
[4] = biological target: AP2 α-appendage (residues 695 to 938) (UniProt P17427); experiment: ITC; α-appendage or β2-appendage with C block peptides; 100 mM tris pH 7.4, 150 mM NaCl, 0.25 mM TCEP; 12°C; peptides 1 to 5 mM titrated
[5] = biological target: Cμ2 (μ2 residues 160 to 435) (UniProt P84092); experiment: ITC; Cμ2 with FCHO2 constructs or peptides; 100 mM tris pH 7.4, 150 mM NaCl, 0.25 mM TCEP; 12°C; Nano ITC
Sequence of Cμ2 (μ2 residues 160 to 435) (P84092 160-435): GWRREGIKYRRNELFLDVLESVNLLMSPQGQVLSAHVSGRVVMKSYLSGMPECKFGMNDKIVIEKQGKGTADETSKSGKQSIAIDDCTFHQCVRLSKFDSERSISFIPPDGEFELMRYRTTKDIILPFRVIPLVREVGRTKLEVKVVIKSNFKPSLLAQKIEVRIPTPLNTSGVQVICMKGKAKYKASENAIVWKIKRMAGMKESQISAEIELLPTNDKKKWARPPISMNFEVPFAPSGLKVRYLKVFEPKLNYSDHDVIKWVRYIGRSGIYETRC

Sequence of GST-TGN38 (pGEX4T2 linker TGN38) (Q9UJY5 other isoform, or with tags, fused parts or gaps): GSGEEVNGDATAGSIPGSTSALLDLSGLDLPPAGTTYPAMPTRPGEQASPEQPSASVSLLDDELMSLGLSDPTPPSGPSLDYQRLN
Sequence of AP2 α-appendage (residues 695 to 938) (P17427 695-938): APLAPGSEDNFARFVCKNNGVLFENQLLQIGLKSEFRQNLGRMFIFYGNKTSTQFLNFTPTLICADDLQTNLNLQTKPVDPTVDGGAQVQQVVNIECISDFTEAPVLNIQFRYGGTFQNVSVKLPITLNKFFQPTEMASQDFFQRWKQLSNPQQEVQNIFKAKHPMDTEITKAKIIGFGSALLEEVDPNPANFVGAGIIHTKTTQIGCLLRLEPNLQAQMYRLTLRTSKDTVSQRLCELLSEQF
Sequence of GST-FCHO2 linker wt (residues 314 to 444) (human) (Q0JRZ9 314-444): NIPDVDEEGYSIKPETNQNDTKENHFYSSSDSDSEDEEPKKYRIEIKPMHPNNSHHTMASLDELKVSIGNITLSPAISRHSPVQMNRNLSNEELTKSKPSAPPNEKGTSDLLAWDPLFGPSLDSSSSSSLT
Sequence of GST-FCHO1 linker wt (N123C) (residues 316 to 444) (human) (O14526 316-444, stated change not applied): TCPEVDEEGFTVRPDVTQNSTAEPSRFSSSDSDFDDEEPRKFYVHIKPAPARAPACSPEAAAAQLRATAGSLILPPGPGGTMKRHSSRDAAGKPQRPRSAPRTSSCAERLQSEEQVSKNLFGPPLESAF

Substance: AP2 core (recombinant) (from UniProt P63010 1-591; P84092 1-435; P62743 1-142) (complex)
- Kd [1]: 8.5 µM
- Kd [2]: 9.8 µM

Substance: AP2:μ2FCHO2-N1+N2+N3 chimeric AP2 core (from UniProt P62743 1-142; P63010 1-591; Q0JRZ9-1 314-444) (complex)
- fold tighter binding than AP2 core [3]: 3 fold

Substance: FCHO1 C peptide (residues 426 to 448)
- Kd [4]: 50 µM

Substance: FCHO2 N1 alone (ITC) (from UniProt Q0JRZ9-1 314-340) (domain or fragment)
- fold reduction of binding against N1+N2 [5]: 5 fold

Substance: FCHO2-N1+N2 (ITC) (from UniProt Q0JRZ9-1 314-356) (domain or fragment)
- Kd [5]: 25 µM
